According to the supplement of paper PMC10126150:
± gives the standard deviation of the averaged measurements.

System: ATP
Test: switch fluorescence ratio, 500 uM ATP over buffer (Cy3 cluster intensity, sum of 5 cycles each) (fold (ratio)); higher = stronger signal-on switching upon ATP binding; sequences stand for … in TCGTCGGCAGCGTCAGATGTGTATAAGAGACAGTTTTTTTTTTTTTTTTTTTTTTTTT…TC
Conditions: aptamer strand: ATP DNA aptamer (quencher-CACCTGGGGGAGTATTGCGGAGGAAGG + anchor), 100 nM annealed; ATP concentration: 500 uM
Method in brief: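 Values give the fluorescence ratio for each switch-domain sequence, averaged from per-cluster ratios of summed target-cycle to summed buffer-cycle Cy3 intensity. The Cy3-labelled switching-strand clusters sat on a modified Illumina MiSeq flow-cell, were annealed to 100 nM quencher-labelled ATP aptamer, and were imaged in selection buffer, then after 15 min with 500 uM ATP at 22 °C. Five cycles ran with NaOH stripping and re-annealing between them, and clusters outside 100-1000 RFU were excluded.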
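Also: ATP exposure 15 min at 22 °C before imaging.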

Sequence | switch fluorescence ratio
GGAAATAAGG | 1.01 ± 0.033
GGAAATAGTG | 0.966 ± 0.044
GGAAATCACA | 1.01 ± 0.029
GGAAATGACT | 1.01 ± 0.021
GGAAATGGGG | 0.987 ± 0.11
GGAAATTTTT | 0.973 ± 0.019
GGAACACACG | 1.32 ± 0.039
GGAACATAG | 0.9987 ± 0.0023
GGAACCATAT | 0.997 ± 0.013
GGAACCTCTG | 1.012 ± 0.0037
GGAACGTAGG | 1.016 ± 0.0083
GGAACGTTCT | 0.995 ± 0.046
GGAACGTTGG | 0.973 ± 0.045
GGAAGATTTT | 0.989 ± 0.058
GGAAGCGCTC | 1 ± 0.02
GGAAGGAGTC | 0.991 ± 0.019
GGAAGGGGCC | 1.03 ± 0.086
GGAAGGGGGC | 0.9707 ± 0.0066
GGAAGGGGGT | 1.01 ± 0.12
GGAAGGGGTA | 1.01 ± 0.048
GGAAGGGTAT | 1 ± 0.03
GGAAGTCCGG | 1.03 ± 0.022
GGAATAGTTT | 1.03 ± 0.047
GGAATCATAG | 1.06 ± 0.07
GGAATCGGTC | 1 ± 0.051
GGAATCTGGG | 0.983 ± 0.05

Sequence | switch fluorescence ratio
GGAATCTGTA | 0.949 ± 0.022
GGAATGCGCA | 1.028 ± 0.0068
GGAATGGAAC | 1.01 ± 0.024
GGAATGTTTT | 0.994 ± 0.023
GGAATTACTT | 0.987 ± 0.031
GGAATTCGGG | 1.01 ± 0.025
GGAATTGTTT | 0.974 ± 0.048
GGACAAGCGT | 0.987 ± 0.021
GGACACGATT | 0.986 ± 0.051
GGACAGGGGA | 1.87 ± 1.2
GGACATAATT | 1.01 ± 0.029
GGACCAAACG | 1.05 ± 0.024
GGACCGGGAC | 1.12 ± 0.11
GGACGCTGTG | 0.986 ± 0.043
GGACGGCGGG | 1 ± 0.034
GGACGGGATT | 1.02 ± 0.068
GGACGGTCGG | 1.01 ± 0.052
GGACGTCGGA | 1.05 ± 0.12
GGACGTGGGA | 0.9944 ± 0.0036
GGACTAAAAT | 1.08 ± 0.13
GGACTAGGAA | 1.01 ± 0.026
GGACTCTGCG | 1 ± 0.028
GGACTGGCTA | 1.02 ± 0.035
GGACTGGGCT | 0.9806 ± 0.0081
GGACTTATGG | 0.9851 ± 0.0091
GGACTTGGGC | 0.986 ± 0.036

Sequence | switch fluorescence ratio
GGACTTGGGT | 0.9702 ± 0.0082
GGAGAAAATG | 1.0023 ± 0.00074
GGAGAAATGT | 0.998 ± 0.011
GGAGAAGAGT | 1.04 ± 0.015
GGAGAAGCGT | 1.04 ± 0.031
GGAGACAGTT | 0.971 ± 0.024
GGAGACGGGG | 0.989 ± 0.011
GGAGAGGCAG | 0.975 ± 0.026
GGAGAGGGCA | 1.016 ± 0.0077
GGAGATATCT | 1.11 ± 0.0069
GGAGATGTGG | 0.989 ± 0.011
GGAGCAGTTT | 1.12 ± 0.019
GGAGCATTTT | 1.78 ± 0.88
GGAGCCGGGG | 1 ± 0.022
GGAGCTTTGT | 0.98 ± 0.015
GGAGGAAGG | 1.02 ± 0.019
GGAGGAATTT | 1.01 ± 0.016
GGAGGACGGG | 1 ± 0.027
GGAGGATTGG | 0.958 ± 0.017
GGAGGCAAGG | 1.1 ± 0.054
GGAGGCAGGG | 0.9965 ± 0.0096
GGAGGCCTCG | 0.982 ± 0.018
GGAGGCGGGA | 1.02 ± 0.045
GGAGGCGGGC | 0.963 ± 0.12
GGAGGGAGGA | 1.25 ± 0.3
GGAGGGATAG | 1.26 ± 0.029

Sequence | switch fluorescence ratio
GGAGGGCATC | 0.972 ± 0.0046
GGAGGGCGGT | 0.9948 ± 0.0081
GGAGGGGCGT | 0.993 ± 0.023
GGAGGGGTGC | 1.04 ± 0.032
GGAGTAAAGG | 1.06 ± 0.022
GGAGTACCTG | 1.06 ± 0.046
GGAGTACGGG | 0.999 ± 0.032
GGAGTAGGCT | 0.938 ± 0.057
GGAGTATGAG | 0.999 ± 0.021
GGAGTCGGGG | 1 ± 0.012
GGAGTCTGG | 1.0086 ± 0.0004
GGAGTTAAGC | 1.03 ± 0.061
GGAGTTGCGC | 1.03 ± 0.043
GGAGTTGGGA | 1.021 ± 0.0066
GGAGTTGGGG | 0.99 ± 0.02
GGAGTTGGGT | 0.984 ± 0.08
GGAGTTTGAC | 1.05 ± 0.068
GGAGTTTGAG | 1 ± 0.0095
GGATAAAGGT | 0.978 ± 0.018
GGATAGGAGC | 0.964 ± 0.033
GGATAGTAGG | 0.9956 ± 0.0083
GGATAGTGTT | 0.988 ± 0.016
GGATATAGGG | 1 ± 0.034
GGATCAGAAG | 1.004 ± 0.0056
GGATCCTGCA | 1.04 ± 0.052
GGATCGGATT | 0.979 ± 0.023

Sequence | switch fluorescence ratio
GGATCGGGGC | 0.994 ± 0.046
GGATGAAAG | 0.99 ± 0.014
GGATGAACGG | 1.01 ± 0.079
GGATGACTTT | 0.9981 ± 0.0071
GGATGAGGGC | 0.993 ± 0.0099
GGATGAGGTT | 0.982 ± 0.044
GGATGATCTT | 0.972 ± 0.022
GGATGCAAAG | 1.01 ± 0.013
GGATGCTCGG | 0.966 ± 0.015
GGATGCTGGT | 1.04 ± 0.053
GGATGCTGTG | 0.991 ± 0.013
GGATGCTGTT | 1.02 ± 0.012
GGATGCTTGG | 1.05 ± 0.021
GGATGGAAAT | 1.04 ± 0.012
GGATGGAGGG | 0.965 ± 0.02
GGATGGAGGT | 1 ± 0.023
GGATGGGTCG | 1.02 ± 0.083
GGATGGTTTT | 1.02 ± 0.018
GGATGTAGAA | 1.026 ± 0.0011
GGATGTCACT | 0.974 ± 0.016
GGATGTCGCG | 1.0124 ± 0.001
GGATGTGAGC | 0.983 ± 0.021
GGATGTTGTG | 0.974 ± 0.04
GGATGTTTAG | 1.02 ± 0.021
GGATGTTTTT | 1.03 ± 0.026
GGATTAAGTG | 0.9616 ± 0.006

Sequence | switch fluorescence ratio
GGATTAGACG | 0.955 ± 0.062
GGATTAGGAG | 0.975 ± 0.011
GGATTAGGTA | 1 ± 0.021
GGATTATACA | 1.02 ± 0.002
GGATTCGTAA | 0.998 ± 0.01
GGATTGAGTT | 0.999 ± 0.035
GGATTGGGAC | 1.024 ± 0.0016
GGATTGTATG | 0.994 ± 0.032
GGATTGTCTT | 1 ± 0.0014
GGATTTAAAA | 1.05 ± 0.044
GGATTTCATG | 1.07 ± 0.12
GGATTTGGCT | 0.999 ± 0.029
GGATTTGGTG | 1 ± 0.012
GGCAAATGGG | 1.02 ± 0.012
GGCAATGAAG | 1.03 ± 0.049
GGCACACAGT | 1 ± 0.015
GGCACCTGAC | 1.95 ± 0.11
GGCACGAGGA | 1.04 ± 0.017
GGCACGCGAG | 1.03 ± 0.05
GGCACGGGGG | 1.02 ± 0.008
GGCACTATCC | 1.09 ± 0.07
GGCACTGGTA | 0.981 ± 0.022
GGCACTTCCA | 1.03 ± 0.028
